Data taken from US11130803B2, “Isoform-selective TGFβ1 inhibitors and use thereof” (Scholar Rock, Inc., priority 2018, dated 2021).
Numbering of substitutions follows the chain as printed.

B1: Ab21: monoclonal antibody; VH SEQ ID NO: 129, VL SEQ ID NO: 15 (antibody, V domains shown)
VH: EVQLVESGGGLVQPGGSLRLSCAASGFTFSSFSMDWVRQAPGKGLEWVSYISPDASTIYYADSVKGRFTISRDNAKNSLYLQMNSLRAEDTAVYYCARGVLDYGDMLDPWGQGTLVTVSS
VL: DIQMTQSPSSLSASVGDRVTITCQASQDITNYLNWYQQKPGKAPKLLIYDASNLETGVPSRFSGSGSGTDFTFTISSLQPEDIATYYCQQADNHPPWTFGGGTKVEIK
B2: Ab25: monoclonal antibody; VH SEQ ID NO: 133, VL SEQ ID NO: 15 (antibody, V domains shown)
VH: B1 VH with S30G
VL: B1 VL
B3: Ab23: monoclonal antibody; VH SEQ ID NO: 131, VL SEQ ID NO: 15 (antibody, V domains shown)
VH: B1 VH with D35N, D54S, S56D, S78T
VL: B1 VL
B4: Ab28: monoclonal antibody; VH SEQ ID NO: 136, VL SEQ ID NO: 15 (antibody, V domains shown)
VH: B1 VH with A97V
VL: B1 VL
B5: Ab27: monoclonal antibody; VH SEQ ID NO: 135, VL SEQ ID NO: 15 (antibody, V domains shown)
VH: B1 VH with S31F, F32Y, S33A, D35N
VL: B1 VL
B6: Ab13: monoclonal antibody; VH SEQ ID NO: 242, VL SEQ ID NO: 243 (antibody, V domains shown)
VH: EVQLLESGGGLVQPGGSLRLSCAASGFTFADYAMTWVRQAPGKGLEWVSAISSFASAIYYADSVKGRFTISRDNSKNTLYLQMNSLRAEDTAVYYCARVSSGHWDFDYWGQGTLVTVSS
VL: DIQMTQSPSSLSASVGDRVTITCRASQSISSYLNWYQQKPGKAPKLLIYAASSLQSGVPSRFSGSGSGTDFTLTISSLQPEDFATYYCQQVYDPPLTFGGGTKVEIK
B7: Ab15: monoclonal antibody; VH SEQ ID NO: 245, VL SEQ ID NO: 241 (antibody, V domains shown)
VH: EVQLVESGGGVVQPGRSLRLSCAASGFTFSDYAMVWVRQAPGKGLEWVSAISGSGFTTYYADSVKGRFTISRDNSKNTLYLQMNSLRAEDTAVYYCARVSSGHWDFDYWGQGTLVTVSS
VL: B6 VL with M4L, S53N, V91T, D93T, P94V
B8: Ab16: monoclonal antibody; VH SEQ ID NO: 247, VL SEQ ID NO: 241 (antibody, V domains shown)
VH: B7 VH with V5L, V11L, R16G, D31N, V35S
VL: B6 VL with M4L, S53N, V91T, D93T, P94V
B9: Ab14: monoclonal antibody; VH SEQ ID NO: 244, VL SEQ ID NO: 243 (antibody, V domains shown)
VH: B6 VH with A30S, D31A, S53G, F54T, A55G, S56G, A57S, I58T
VL: B6 VL

Tested on: matrix-associated (LTBP1/LTBP3) and cell-associated (GARP/LRRC33) proTGFβ1 complexes
Assay: Octet: average KD and fold bias, matrix- vs cell-associated complexes
Format: binding, human
Conditions: average KD of (E) and (F), cell-associated complexes, read-out: (G) Cell AVRG
Text: Column (A) of the table lists monoclonal antibodies with discrete amino acid sequences. […] Columns (B), (D), (E) and (F) provide affinities of each of the listed antibodies, measured in KD. […] Average KD values of (B) and (C) are shown in the corresponding column (D), which collectively represents affinities of the antibodies to ECM- or matrix-associated proTGFβ1 complexes. Similarly, Average KD values of (E) and (F) are shown in the corresponding column (G), which collectively represents affinities of the antibodies to cell-surface or cell-associated proTGFβ1 complexes. Finally, relative ratios between the average KD values from columns (D) and (G) are expressed as “fold bias” in column (H). […] This is one way of quantitatively representing and comparing inherent bias of antibodies to their target complexes.
Average KD values between the two matrix-associated and cell-associated complexes are calculated, respectively (see columns (D) and (G)). These average KD values can then be used to ask whether bias in binding activities exists between complexes associated with matrix vs. complexes associated with cell surface (e.g., immune cells). Bias may be expressed as “fold-difference” in the average KD values, as illustrated in Table 8.

Molecule	Kd [nM]
B1	0.644
B2	0.449
B3	0.897
B4	0.603
B5	0.361
B6	5.7
B7	3.86
B8	2.4
B9	5.92

Same assay, conditions: ratio of average KD cell-associated / matrix-associated

Molecule	(H) G/D (fold bias) [fold]
B1	2.613
B2	2.431
B3	2.028
B4	1.838
B5	1.738
B6	21.71
B7	24.25
B8	15.307
B9	17.36

Tested on: matrix-associated (LTBP1/LTBP3) and cell-associated (GARP/LRRC33) proTGFβ1 complexes
Assay: as above
Format: binding, human
Conditions: average KD of (B) and (C), read-out: (D) ECM AVRG

Molecule	Kd [nM]
B1	0.246
B2	0.184
B3	0.443
B4	0.328
B5	0.208
B6	0.263
B7	0.159
B8	0.157
B9	0.341

Molecular target: T1, recombinant human LTBP3-proTGFβ1 complex (Homo sapiens, UniProt P01137)
T1 construct: made in house; host or cells: Expi293F cells, transient co-transfection
Assay: Octet (Biolayer Interferometry) in vitro kinetic binding
Conditions: in M
Text: (§1) Biolayer Interferometry (BLI):BLI is a label-free technology for optically measuring biomolecular interactions, e.g., between a ligand immobilized on the biosensor tip surface and an analyte in solution. BLI provides the ability to monitor binding specificity, rates of association and dissociation, or concentration, with precision and accuracy. BLI platform instruments are commercially available, for example, from ForteBio and are commonly referred to as the Octet® System.
(§2) BLI-based binding assays are widely used in the art for measuring affinities and kinetics of antibodies to antigens. It is a label-free technology in which biomolecular interactions are analyzed on the basis of optical interference. One of the proteins, for example, an antibody being tested, can be immobilized on the biosensor tip. When the other protein in solution, for example, an antigen, becomes bound to the immobilized antibody, it causes a shift in the interference pattern, which can be measured in real-time. This allows the monitoring of binding specificity, rates of association and dissociation, as well as concentration dependency. […] Due to its ease of use and fast results, BLI-based assays such as the Octet® system (available from ForteBio/Molecular Devices, Fremont Calif.), are particularly convenient when used as an initial screening method to identify and separate a pool of “binders” from a pool of “non-binders” or “weak binders” in the screening process.
(§3) Table 8 below provides non-limiting examples of high-affinity, context-independent proTGFβ1 antibodies encompassed by the present invention. The table provides representative results from in vitro binding assays, as measured by Octet®.
(§4) Column (A) of the table lists monoclonal antibodies with discrete amino acid sequences. […] Columns (B), (D), (E) and (F) provide affinities of each of the listed antibodies, measured in KD. […] Average KD values of (B) and (C) are shown in the corresponding column (D), which collectively represents affinities of the antibodies to ECM- or matrix-associated proTGFβ1 complexes. Similarly, Average KD values of (E) and (F) are shown in the corresponding column (G), which collectively represents affinities of the antibodies to cell-surface or cell-associated proTGFβ1 complexes. Finally, relative ratios between the average KD values from columns (D) and (G) are expressed as “fold bias” in column (H). Thus, the greater the number of column (H) is, the greater bias exists for the particular antibody, when comparing binding preferences of the antibody for matrix-associated complexes and cell-surface complexes. This is one way of quantitatively representing and comparing inherent bias of antibodies to their target complexes. Such analyses may be useful in guiding the selection process for a candidate antibody for particular therapeutic use.
(§5) In some embodiments, the binding affinity of an antibody, or antigen binding portion thereof, to an antigen (e.g., protein complex), such as presenting molecule-proTGFβ1 complexes, is determined using an Octet assay. In some embodiments, an Octet assay is an assay that determines one or more a kinetic parameters indicative of binding between an antibody and antigen. In some embodiments, an Octet® system (ForteBio, Menlo Park, Calif.) is used to determine the binding affinity of an antibody, or antigen binding portion thereof, to presenting molecule-proTGFβ1 complexes. For example, binding affinities of antibodies may be determined using the fortéBio Octet QKe dip and read label free assay system utilizing bio-layer interferometry. In some embodiments, antigens are immobilized to biosensors (e.g., streptavidin-coated biosensors) and the antibodies and complexes (e.g., biotinylated presenting molecule-proTGFβ1 complexes) are presented in solution at high concentration ([…]) to measure binding interactions. […]

T1 sequence (P01137 30-390): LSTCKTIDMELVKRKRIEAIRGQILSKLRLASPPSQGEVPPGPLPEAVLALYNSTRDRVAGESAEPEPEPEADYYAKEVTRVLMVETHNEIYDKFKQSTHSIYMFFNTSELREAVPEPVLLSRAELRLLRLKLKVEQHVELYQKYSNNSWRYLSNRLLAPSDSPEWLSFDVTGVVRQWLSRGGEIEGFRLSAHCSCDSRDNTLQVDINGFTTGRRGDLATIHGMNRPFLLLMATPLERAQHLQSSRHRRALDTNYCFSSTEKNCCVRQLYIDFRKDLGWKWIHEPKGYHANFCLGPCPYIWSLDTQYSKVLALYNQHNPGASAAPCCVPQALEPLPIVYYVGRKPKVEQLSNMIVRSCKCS
T1 sequence (Q9NS15 866-1039 partner limits assumed): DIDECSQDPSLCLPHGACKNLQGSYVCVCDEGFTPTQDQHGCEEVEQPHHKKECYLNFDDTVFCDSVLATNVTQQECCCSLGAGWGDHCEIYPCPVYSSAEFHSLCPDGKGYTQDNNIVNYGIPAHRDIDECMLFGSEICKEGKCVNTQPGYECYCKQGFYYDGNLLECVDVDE

Molecule	(C) hLTBP3, Matrix-associated proTGFb1 (KD)
B1	2.68E−10
B2	1.52E−10
B3	4.68E−10
B4	3.16E−10
B5	2.38E−10
B6	2.49E−10
B7	1.68E−10
B8	1.32E−10
B9	3.46E−10

Molecular target: T2, recombinant human LTBP1-proTGFβ1 complex (Homo sapiens, UniProt P01137)
T2 construct: made in house; host or cells: Expi293F cells, transient co-transfection
Assay: as above
Conditions: in M
Text: as §1, §2, §3, §4, §5

T2 sequence (P01137 30-390): as the sequence (P01137 30-390) above
T2 sequence (Q14766 873-1507 partner): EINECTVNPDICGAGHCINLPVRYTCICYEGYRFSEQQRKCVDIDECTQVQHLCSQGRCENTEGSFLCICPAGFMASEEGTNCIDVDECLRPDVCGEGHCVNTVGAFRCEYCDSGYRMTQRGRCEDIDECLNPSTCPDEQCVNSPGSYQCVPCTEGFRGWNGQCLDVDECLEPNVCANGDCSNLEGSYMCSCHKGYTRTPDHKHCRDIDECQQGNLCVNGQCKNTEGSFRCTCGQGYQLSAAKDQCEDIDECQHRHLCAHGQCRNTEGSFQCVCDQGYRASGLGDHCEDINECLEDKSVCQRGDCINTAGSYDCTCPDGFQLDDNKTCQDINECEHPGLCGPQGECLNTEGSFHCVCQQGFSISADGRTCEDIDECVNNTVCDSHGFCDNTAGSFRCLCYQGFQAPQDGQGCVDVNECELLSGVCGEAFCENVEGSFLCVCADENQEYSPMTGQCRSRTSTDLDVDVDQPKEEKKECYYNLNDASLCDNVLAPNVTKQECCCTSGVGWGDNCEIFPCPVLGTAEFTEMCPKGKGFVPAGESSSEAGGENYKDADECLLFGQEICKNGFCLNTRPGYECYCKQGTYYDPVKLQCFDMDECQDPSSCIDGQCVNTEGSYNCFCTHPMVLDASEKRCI

Molecule	(B) hLTBP1, Matrix-associated proTGFb1 (KD)
B1	2.25E−10
B2	2.17E−10
B3	4.17E−10
B4	3.40E−10
B5	1.78E−10
B6	2.76E−10
B7	1.50E−10
B8	1.81E−10
B9	3.36E−10

Molecular target: T3, recombinant human GARP-proTGFβ1 complex (Homo sapiens, UniProt P01137)
T3 construct: made in house
Assay: as above
Conditions: in M
Text: as §1, §2, §3, §4, §5

T3 sequence (P01137 30-390): as the sequence (P01137 30-390) above
T3 sequence (Q14392 20-627 partner limits assumed): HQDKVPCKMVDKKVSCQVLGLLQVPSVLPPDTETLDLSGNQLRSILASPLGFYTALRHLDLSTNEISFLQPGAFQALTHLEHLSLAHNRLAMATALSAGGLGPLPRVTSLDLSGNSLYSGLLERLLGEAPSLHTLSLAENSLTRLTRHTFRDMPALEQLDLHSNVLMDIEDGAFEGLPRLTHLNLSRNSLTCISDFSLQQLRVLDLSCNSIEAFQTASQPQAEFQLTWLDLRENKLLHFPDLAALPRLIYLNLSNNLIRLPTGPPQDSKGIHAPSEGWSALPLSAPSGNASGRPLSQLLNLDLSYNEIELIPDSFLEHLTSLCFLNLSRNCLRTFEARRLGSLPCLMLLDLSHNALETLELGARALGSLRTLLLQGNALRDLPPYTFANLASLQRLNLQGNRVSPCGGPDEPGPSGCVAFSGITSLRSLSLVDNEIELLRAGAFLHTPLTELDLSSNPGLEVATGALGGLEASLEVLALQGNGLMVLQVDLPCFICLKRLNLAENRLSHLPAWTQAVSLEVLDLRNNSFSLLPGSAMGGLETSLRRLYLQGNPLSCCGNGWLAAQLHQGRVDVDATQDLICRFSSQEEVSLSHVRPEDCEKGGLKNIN

Molecule	(E) hGARP, Cell-associated proTGFb1 (KD)
B1	8.33E−10
B2	4.88E−10
B3	1.34E−09
B4	7.97E−10
B5	4.24E−10
B6	1.00E−08
B7	7.01E−09
B8	4.16E−09
B9	1.05E−08

Molecular target: T4, recombinant human LRRC33-proTGFβ1 complex (Homo sapiens, UniProt P01137)
T4 construct: made in house
Assay: as above
Conditions: in M
Text: as §1, §2, §3, §4, §5

T4 sequence (P01137 30-390): as the sequence (P01137 30-390) above
T4 sequence (Q86YC3 19-650 partner limits assumed): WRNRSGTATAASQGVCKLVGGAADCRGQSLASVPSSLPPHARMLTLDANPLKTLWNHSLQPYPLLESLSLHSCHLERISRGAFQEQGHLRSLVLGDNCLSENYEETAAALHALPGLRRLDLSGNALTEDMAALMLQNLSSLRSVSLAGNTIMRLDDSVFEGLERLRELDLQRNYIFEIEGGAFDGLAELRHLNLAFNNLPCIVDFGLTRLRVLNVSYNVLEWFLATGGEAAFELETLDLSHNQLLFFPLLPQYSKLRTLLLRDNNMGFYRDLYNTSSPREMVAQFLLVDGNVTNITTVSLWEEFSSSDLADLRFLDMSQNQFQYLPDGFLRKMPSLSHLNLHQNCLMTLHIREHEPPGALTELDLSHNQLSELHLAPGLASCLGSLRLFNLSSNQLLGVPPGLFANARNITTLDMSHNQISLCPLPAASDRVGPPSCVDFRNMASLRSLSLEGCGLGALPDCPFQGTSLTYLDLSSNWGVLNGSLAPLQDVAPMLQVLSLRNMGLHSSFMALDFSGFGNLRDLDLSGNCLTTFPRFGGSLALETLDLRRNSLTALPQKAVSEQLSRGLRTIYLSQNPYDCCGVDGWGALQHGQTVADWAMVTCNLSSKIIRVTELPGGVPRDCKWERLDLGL

Molecule	(F) hLRRC33, Cell-associated proTGFb1 (KD)
B1	4.55E−10
B2	4.09E−10
B3	4.55E−10
B4	4.09E−10
B5	2.99E−10
B6	1.40E−09
B7	7.02E−10
B8	6.31E−10
B9	1.34E−09
